Laboratory results taken from paper PMC6048507.
Where two headings read alike, the source gives them in different places.

Assays:
[1] = molecular target: mavirus cysteine protease (MVP) (mavirus)
[2] = molecular target: mavirus major capsid protein truncated at the C terminus (MCPΔC, res. 1–516), purified capsomer (mavirus); assay: crystal structure
[3] = molecular target: mavirus major capsid protein truncated at the C terminus (MCPΔC, res. 1–516), purified capsomer (mavirus)
[4] = molecular target: mavirus major capsid protein, full-length (flMCP), purified capsomer (mavirus); assay: crystal structure
[5] = molecular target: mavirus major capsid protein, full-length (flMCP), purified capsomer (mavirus)
[6] = molecular target: mavirus penton protein (minor capsid protein, MV17), purified (mavirus); assay: crystal structure
[7] = molecular target: mavirus penton protein (minor capsid protein, MV17), purified (mavirus)

mavirus cysteine protease (MVP) (enzyme)
stoichiometry N [1]: 2

mavirus major capsid protein truncated at the C terminus (MCPΔC, res. 1–516), purified capsomer (domain or fragment)
stoichiometry N [2]: 3 | stoichiometry N [3]: 3

mavirus major capsid protein, full-length (flMCP), purified capsomer (natural protein)
stoichiometry N [4]: 3 | stoichiometry N [5]: 3

mavirus penton protein (minor capsid protein, MV17), purified (natural protein)
stoichiometry N [6]: 5 | stoichiometry N [7]: 5
